Laboratory results from paper PMC7584627.

How the values were obtained:
[1] = biological target: LuS-N71-SpyTag (Aquifex aeolicus); test: SDS-PAGE of the covalent conjugate, band intensities; conjugated product or conjugation mixture on SDS-PAGE with DTT; band intensity and molecular weight used to work out the molar share of conjugated nanoparticle subunit
[2] = biological target: ferritin-N96-SpyTag (Helicobacter pylori); test: as above

Row | Substance | percent of nanoparticle subunit conjugated [1] | percent of nanoparticle subunit conjugated [2]
1 | PIV3 F-SpyCatcher | 68% | 
2 | RSV F-SpyCatcher | 67% | 85%
